In this assay the target is T1, human OT7T175 (metastin receptor) (human, UniProt Q969F8 1-398).
T1 construct: expressed on CHO cells; also called hOT7T175; hOT7T175-expressed CHO cells
Nature of the assay: competition with Cy-5 metastin (40-54) on hOT7T175-CHO cells, FMAT. Here is the method:
hOT7T175-Expressed CHO cells were cultured in MEM-α medium (nucleic acid-free) containing 10% dialyzed serum. The medium was removed and the adhered cells were washed with PBS. Then, PBS containing 5 mM EDTA was added and the cells were scraped from a flask with a cell scraper.
To each well of a 96-Well Black Clear Bottom Microplate (Applied Biosystems, Inc.), 10 μL of assay buffer containing 1% dimethylsulfoxide was added to examine total binding, 10 μL of 10 μM non-labeled peptide (having the same amino acid sequence as that of labeled one) solution diluted with assay buffer to examine non-specific binding, and 10 μL of a test compound diluted with assay buffer to examine a binding inhibition activity of the test compound, and furthermore, 90 μL each of the cell suspension was dispensed to each well. […] Specific binding is calculated as non-specific binding subtracted from total binding. The binding inhibition activity of a test compound is shown by a ratio of the value obtained by subtracting a measured value in presence of a test compound from the total binding to the specific binding.

Starred links: 1 amine or outer side, 2 acyl side, 3 side chain; linkers in the order of their positions; H or OH if unused. Non-standard residues stand in square brackets, D forms with d. Primed or numbered codes have the meaning given here. No end group written: not given here. *: point of attachment. Trp(For)″ = Trp(CHO), formyl-Trp, O=Cn1cc(C[C@H](N[*:1])C(=O)[*:2])c2ccccc21; Phe(4-CN) = N#Cc1ccc(C[C@H](N)C(=O)O)cc1; Phe(4-Cl) = N[C@@H](Cc1ccc(Cl)cc1)C(=O)O; Phe(4-F) = N[C@@H](Cc1ccc(F)cc1)C(=O)O; Phe(2-F) = N[C@@H](Cc1ccccc1F)C(=O)O; Arg(Me) = CNC(=N)NCCC[C@H](N)C(=O)O; Fmoc = O=C(OCC1c2ccccc2-c2ccccc21)*; 2Pal = N[C@@H](Cc1ccccn1)C(=O)O; 3Pal = N[C@@H](Cc1cccnc1)C(=O)O; Cha = N[C@@H](CC1CCCCC1)C(=O)O; Dab = NCC[C@H](N)C(=O)O; azaGly = NNC(=O)O

Usually IC50 stands for the concentration that gives 50% inhibition. A higher IC50 goes with weaker potency.

T1 sequence (Q969F8 whole entry L364H): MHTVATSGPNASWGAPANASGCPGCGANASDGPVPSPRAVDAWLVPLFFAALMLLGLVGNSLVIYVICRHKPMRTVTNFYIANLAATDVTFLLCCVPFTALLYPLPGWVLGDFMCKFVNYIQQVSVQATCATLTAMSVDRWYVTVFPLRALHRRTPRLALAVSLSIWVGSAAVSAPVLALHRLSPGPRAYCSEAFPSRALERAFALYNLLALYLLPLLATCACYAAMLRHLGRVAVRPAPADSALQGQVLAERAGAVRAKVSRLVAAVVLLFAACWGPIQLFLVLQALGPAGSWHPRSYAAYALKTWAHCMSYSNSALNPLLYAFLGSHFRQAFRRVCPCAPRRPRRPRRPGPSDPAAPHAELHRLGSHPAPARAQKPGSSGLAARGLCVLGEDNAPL

In turn, YNWNSF[azaGly]L[Arg(Me)]F-NH2 (also: bond 1-2 CONH replaced by CH2NH, also called Compound No. 299) [[1Ψ2,CH2NH,AzaGly7,Arg(Me)9]-MS10] registered an IC50 of 1.2 nM. With YNWNSFGLR[Phe(4-F)]-NH2 (also called Compound No. 61) [[Phe(4F)10]MS10], the IC50 was 13 nM. The molecule YNWNSFGLR[Phe(2-F)]-NH2 (also called Compound No. 19) [[Phe(2F)10]MS10] came in with an IC50 of 8.6 nM. This IC50 lies about 1.5-fold lower than the previous one.

As for [dY]NWNSFGL[Arg(Me)]F-NH2 (also: bond 7-8 CONH replaced by CH2NH, also called Compound No. 307) [[7Ψ8,CH2NH,D-Tyr1,Arg(Me)9]MS10], the IC50 is 64 nM.

As to YNWNSFGLRX (Pya(3)10; C-terminal amide, also called Compound No. 60) [[Pya(3)10]MS10], the IC50 was determined as 170 nM. The value for [dY]N[dW]NSF[azaGly]L[Arg(Me)]F-NH2 (also called Compound No. 236) [[D-Tyr1,D-Trp3,AzaGly7,Arg(Me)9]MS10] was 42 nM; that for Fmoc-WNSFGL[Arg(Me)]F-NH2 (also called Compound No. 145) [des(1-2)-Fmoc-[Arg(Me)9]MS10] was 120 nM; that for NWNSFGLRF-NH2 (also called Compound No. 4) [des(1)-MS10] was 260 nM. In the case of [dY]N[3Pal]NSF[azaGly]L[Arg(Me)]F-NH2 (also called Compound No. 251) [[D-Tyr1,Pya(3)3,AzaGly7,Arg(Me)9]MS10] it was 87 nM; in that of [dY]N[dW]NSFGL[Arg(Me)]F-NH2 (also called Compound No. 142) [[D-Tyr1,D-Trp3,Arg(Me)9]MS10], 26 nM; in that of [dY]N[2Pal]NSF[azaGly]L[Arg(Me)]F-NH2 (also called Compound No. 285) [[D-Tyr1,Pya(2)3,AzaGly7,Arg(Me)9]MS10], 40 nM. The value for YNWNSFGLR[Phe(4-Cl)]-NH2 (also called Compound No. 130) [[Phe(4Cl)10]MS10] was 42 nM; that for [dW]NSFGL[Arg(Me)]F-NH2 (also called Compound No. 223) [des(1-2)-[D-Trp3,Arg(Me)9]MS10] was 760 nM.

[dY][dN][Cha]NSF[azaGly]L[Arg(Me)]F-NH2 (also called Compound No. 283) [[D-Tyr1,D-Asn2,Cha3,AzaGly7,Arg(Me)9]MS10] returned a half-maximal inhibitory concentration (IC50) of 0.69 nM. In the case of YNWNSFGLR[Phe(4-CN)]-NH2 (also called Compound No. 77) [[Phe(4CN)10]MS10] it was 7.4 nM; in that of {D‑glucuronyl}-NSF[azaGly]L[Arg(Me)]F-NH2 (also called Compound No. 328) [des(1-3)-D-Glucuronyl-[AzaGly7,Arg(Me)9]MS10], 470 nM; in that of ANWNSFGLRF-NH2 (also called Compound No. 72) [[Ala1]MS10], 540 nM. In turn, YNWNSFGLKF-NH2 (also called Compound No. 44) [[Lys9]MS10] gave an IC50 of 190 nM. This IC50 lies about 2.8-fold lower than the previous one.

YNWNSFGVRF-NH2 (also called Compound No. 107) [[Val8]MS10] registered an IC50 of 120 nM. For the molecule YNANSFGLRF-NH2 (also called Compound No. 67) [[Ala3]MS10], the IC50 is 27 nM.

B1: [D-Tyr1,Pro3,AzaGly7,Arg(Me)9]MS10 (peptide)
peptide: [dY]NPNSF[azaGly]L[Arg(Me)]F-NH2
modifications: N-terminus assumed
SMILES: CNC(=N)NCCC[C@H](NC(=O)[C@H](CC(C)C)NC(=O)NNC(=O)[C@H](Cc1ccccc1)NC(=O)[C@H](CO)NC(=O)[C@H](CC(N)=O)NC(=O)[C@@H]1CCCN1C(=O)[C@H](CC(N)=O)NC(=O)[C@H](N)Cc1ccc(O)cc1)C(=O)N[C@@H](Cc1ccccc1)C(N)=O
notes: also called Compound No. 253
Molecule B1 gave an IC50 of 27 nM. This lies in the double-digit nanomolar range. The value for YNLNSFGLRF-NH2 (also called Compound No. 68) [[Leu3]MS10] was 7.7 nM.

As to LNWNSFGLRF-NH2 (also called Compound No. 73) [[Leu1]MS10], the IC50 is 220 nM. In the case of YYWNSFGLRF-NH2 (also called Compound No. 58) [[Tyr2]MS10] it was 16 nM. The value for YLWNSFGLRF-NH2 (also called Compound No. 59) [[Leu2]MS10] was 340 nM. The value for YNSNSFGLRF-NH2 (also called Compound No. 69) [[Ser3]MS10] was 83 nM; that for YNDNSFGLRF-NH2 (also called Compound No. 70) [[Asp3]MS10] was 200 nM.

YNWNSYGLRF-NH2 (also called Compound No. 150) [[Tyr6]MS10]: the IC50 was 320 nM.

For [dY]NTNSF[azaGly]L[Arg(Me)]F-NH2 (also called Compound No. 221) [[D-Tyr1,Thr3,AzaGly7,Arg(Me)9]MS10], the IC50 is 95 nM. In the case of [dY]NSNSF[azaGly]L[Arg(Me)]F-NH2 (also called Compound No. 191) [[D-Tyr1,Ser3,AzaGly7,Arg(Me)9]MS10] it was 300 nM; in that of [dY]N[dA]NSF[azaGly]L[Arg(Me)]F-NH2 (also called Compound No. 252) [[D-Tyr1,D-Ala3,AzaGly7,Arg(Me)9]MS10], 580 nM; in that of YNWNYFGLRF-NH2 (also called Compound No. 23) [[Tyr5]MS10], 400 nM.

As for YNKNSFGLRF-NH2 (also called Compound No. 71) [[Lys3]MS10], the IC50 came to 66 nM. YDWNSFGLRF-NH2 (also called Compound No. 57) [[Asp2]MS10]: the IC50 is 100 nM. This IC50 is about 1.5-fold higher than that of the molecule before. In the case of YNWNSFGLR[Trp(For)″]-NH2 (also called Compound No. 186) [[Trp(For)10]MS10] it was 460 nM.

B2: des(1-2)-Acetyl-[Arg3,AzaGly7,Arg(Me)9]MS10 (peptide)
peptide: Ac-RNSF[azaGly]L[Arg(Me)]F-NH2
SMILES: CNC(=N)NCCC[C@H](NC(=O)[C@H](CC(C)C)NC(=O)NNC(=O)[C@H](Cc1ccccc1)NC(=O)[C@H](CO)NC(=O)[C@H](CC(N)=O)NC(=O)[C@H](CCCNC(=N)N)NC(C)=O)C(=O)N[C@@H](Cc1ccccc1)C(N)=O
notes: also called Compound No. 275
Molecule B2 gave an IC50 of 410 nM.

B3: des(1-2)-Acetyl-[Thr3,AzaGly7,Arg(Me)9]MS10 (peptide)
peptide: Ac-TNSF[azaGly]L[Arg(Me)]F-NH2
SMILES: CNC(=N)NCCC[C@H](NC(=O)[C@H](CC(C)C)NC(=O)NNC(=O)[C@H](Cc1ccccc1)NC(=O)[C@H](CO)NC(=O)[C@H](CC(N)=O)NC(=O)[C@@H](NC(C)=O)[C@@H](C)O)C(=O)N[C@@H](Cc1ccccc1)C(N)=O
notes: also called Compound No. 276
Regarding B3, the IC50 is 480 nM. In the case of [dY]N[Cha]NS[Cha]GL[Arg(Me)]F-NH2 (also called Compound No. 181) [[D-Tyr1,Cha3,6,Arg(Me)9]MS10] it was 19 nM. In the case of YNWNSFGL[Dab]F-NH2 (also called Compound No. 313) [[Dab9]MS10] it was 690 nM.

For the origin of these results see patent US20090298765A1 (Takeda / Millennium, published 2009).
